# B1: mRNA-splicing (parent)
# chain: AGUUGCUGCUGGGAGCUCCAGCACAGUGAAAUGGACAGAAGGGCAGAGCAA
# Variants of: B1
# Experiment: exon inclusion enrichment index; higher = more inclusion; WT1 exon 5 minigene, HEK293
row,Variant,exon inclusion enrichment index
1,AGUUAUAUAUGGGAGCUCCAGCACAGUGAAAUGGACGGAAGGGCAGAGCAA,0.17
2,AGUUCCAUAUGGGAGCUCCAGCACAGUGAAAUGGACAGAAGGGCAGAGCAA,0.077
3,AGUUCACACAGGGAGCUCCAGCACAGGUAAAUGGACAGAAGGGCAGAGCAA,0.00217
4,AGUUAGGGAUGGGAGCUCCAUCACAGUGAAAUGGACAGAAGGGCAGAGCAA,0.00149
5,AGUUCUUCUCGGGAGCUCCAGCUUAGUGAAAUGGACAGAAGGGCAGAGCAA,0.198
6,AGUUCGCGCCGGGAGCUCCAGGUCAGUGAAAUGGACAGAAGGGCAGAGCAA,1.01
7,AGUUAAUGAUGGGAGCUCCAGCACAGUGAAAUGGACAGAAGGGCAGAGCAA,0.239
8,AGUUACCACCGGGAGCUCCAGCGCAGUGAAAUGGACAGAAGGGCAGAGCAA,3.56
9,AGUUUCUUUUGGGAGCUCCAGCACAGUGAAAUGGACAGAAACGCAGAGCAA,0.348
10,AGUUAUAUAUGGGAGCUCCAGCACAGUGAAACAGACAGAAGGGCAGAGCAA,0.0199
11,AGUUGAUGCUGGGAGCUCCAGCACAGUGAAAUGGACAGAAGGGCAGAGCAA,0.079
12,AGUUCGCGCCGGGAGCUCCAGCACAGUGAAAUGGACAGACAGGCAGAGCAA,1.9
13,AGUUCGCGCCGGGAGCUCCAGCACAGUGAAUCGGACAGAAGGGCAGAGCAA,3.76
14,AGUUGACGACGGGAGCUCCAGCACAGUGAAAUGGAGGGAAGGGCAGAGCAA,1.36
15,AGUUAUAUAUGGGAGCUCCAGAUCAGUGAAAUGGACAGAAGGGCAGAGCAA,0.0397
16,AGUUGCUGCUGGGAGCAACAGCACAGUGAAAUGGACAGAAGGGCAGAGCAA,0.314
17,AGUUUCUUUUGGGAGCUCCAGCACAGUGAAUGGGACAGAAGGGCAGAGCAA,0.0359
18,AGUUGAAGAAGGGAGCUCCAGCACAGUGAAAUGGACCAAAGGGCAGAGCAA,0.719
19,AGUUGACGACGGGAGCUCCAGCACAGUGAAAUGGACAGAAGGGUGGAGCAA,2.34
20,AGUUCUUUGCGGGAGCUCCAGCACAGUGAAAUGGACAGAAGGGCAGAGCAA,0.68
21,AAGUCACACAGGGAGCUCCAGCACAGUGAAAUGGACAGAAGGGCAGAGCAA,0.0866
22,AGUUGACGACGGGAGCUCCAGCACAGUGAAAUGCCCAGAAGGGCAGAGCAA,0.445
23,AGUUUCUUUUGGGAGCUCCAGCCCAGUGAAAUGGACAGAAGGGCAGAGCAA,0.1
24,AGUUUCUUUUGGGAGCUCCAGCACAGUGAAAUGGACAGAAGGGGCGAGCAA,0.346
25,AGUUGAAGAAGGGAGCUCCAGCACAGUGAAAUGGACAGAAGGGCACGGCAA,1.23
26,AGUACAAGAAGGGAGCUCCAGCACAGUGAAAUGGACAGAAGGGCAGAGCAA,0.526

row,Variant,exon inclusion enrichment index
1,AGUUCAUGCCGGGAGCUCCAGCACAGUGAAAUGGACAGAAGGGCAGAGCAA,1.97
2,AGUUCGCGCCGGGAGCUCCAGCACAGUGACCUGGACAGAAGGGCAGAGCAA,3.86
3,AGUUGACGACGGGAGCUCCAUAACAGUGAAAUGGACAGAAGGGCAGAGCAA,2.02
4,AGUUGAAAACGGGAGCUCCAGCACAGUGAAAUGGACAGAAGGGCAGAGCAA,1.36
5,AGUUCGCGCCGGGAGCUCCAGCACAGUGAAAUGGACAGAAGGUUAGAGCAA,1.4
6,AGUUAUAUAUGGGAGCUCCAUUACAGUGAAAUGGACAGAAGGGCAGAGCAA,0.00572
7,AGUUGACGACGGGAGCUCCAGCACAGUGCUAUGGACAGAAGGGCAGAGCAA,2.76
8,AGUUCACACAGGGAGCUCCAGCACCUUGAAAUGGACAGAAGGGCAGAGCAA,0.241
9,AGUUUCUUUUGGGAGCUCCAGCACAGUGAAAUACACAGAAGGGCAGAGCAA,0.0112
10,AGUUUCUUUUGGGAGCUCCAGCACAGUGAAAUAUACAGAAGGGCAGAGCAA,0.0046
11,AGUUCACACAGGGAGCUCCAGCACAGUGAAAUGGACAGAAGGGCAAAGCAA,0.143
12,AGUUACCACCGGGAGCUCCAGCAAGGUGAAAUGGACAGAAGGGCAGAGCAA,2.4
13,AGUUACCACCGGGAGCUCCAGCACAGUGAAAAGGACAGAAGGGCAGAGCAA,1.87
14,AGUUGACGACAUGAGCUCCAGCACAGUGAAAUGGACAGAAGGGCAGAGCAA,1.87
15,AGUUCGCGCCGGGAGCUCCAGCACGCUGAAAUGGACAGAAGGGCAGAGCAA,4.8
16,AGUUGAAGAAGGGAGCUCCAGCACAGUGAAAUGGACAGUCGGGCAGAGCAA,1.19
17,AGUUCACACAGGGAGGACCAGCACAGUGAAAUGGACAGAAGGGCAGAGCAA,0.181
18,AGUUUCAUAUGGGAGCUCCAGCACAGUGAAAUGGACAGAAGGGCAGAGCAA,0.367
19,AGUUACCACCGGGAGCUCCAUGACAGUGAAAUGGACAGAAGGGCAGAGCAA,2.27
20,AGUUGAAGAAGGGAGCUCCAGCAUAGUGAAAUGGACAGAAGGGCAGAGCAA,0.161
21,AUCUGCUGCUGGGAGCUCCAGCACAGUGAAAUGGACAGAAGGGCAGAGCAA,0.216
22,AGUUCUUCUCGGGAGCUCCAGGCCAGUGAAAUGGACAGAAGGGCAGAGCAA,0.747
23,AGUUGCUGCUGGGAGCUCCAGCACAGUGAAAGGGACAGAAGGGCAGAGCAA,0.0106
24,AGUUAUAUUAGGGAGCUCCAGCACAGUGAAAUGGACAGAAGGGCAGAGCAA,0.00135
25,AGUUUCAGUUGGGAGCUCCAGCACAGUGAAAUGGACAGAAGGGCAGAGCAA,0.173
26,AGUUCGCGCCGGGAGUCCCAGCACAGUGAAAUGGACAGAAGGGCAGAGCAA,2.87

row,Variant,exon inclusion enrichment index
1,AGUUUCUUUUGGGAUGUCCAGCACAGUGAAAUGGACAGAAGGGCAGAGCAA,0.064
2,AGUUAAUACCGGGAGCUCCAGCACAGUGAAAUGGACAGAAGGGCAGAGCAA,0.811
3,AGGACGCGCCGGGAGCUCCAGCACAGUGAAAUGGACAGAAGGGCAGAGCAA,2.08
4,AGUUCACACAGGGAGCUCCAGCUAAGUGAAAUGGACAGAAGGGCAGAGCAA,0.0357
5,AGUUCUUCUCGGGUCCUCCAGCACAGUGAAAUGGACAGAAGGGCAGAGCAA,0.66
6,AGUUACCACCGGGAGCUCCAGCACAGUGAAAUGGACAGAAGAACAGAGCAA,4.61
7,AGUUGAAGAAAUGAGCUCCAGCACAGUGAAAUGGACAGAAGGGCAGAGCAA,1.67
8,AGUUUCUUUUGGGAGCUCCAGCACAGUGAAAUGGACAGAAGGGCUGAGCAA,0.21
9,AGUUGACGACGGGAGCUCCAGCACAGUGAAAUCAACAGAAGGGCAGAGCAA,2.31
10,AGUUAGGGAUGGGAGCUCCAGCACAGUGAAAUGGACAGAAGGGAGGAGCAA,0.0102
11,AGUUCGCGCCGGCAGCUCCAGCACAGUGAAAUGGACAGAAGGGCAGAGCAA,1.53
12,AGAGCGCGCCGGGAGCUCCAGCACAGUGAAAUGGACAGAAGGGCAGAGCAA,1.31
13,AGUUAUAUAUGGGAGCUCCAGCACAGUGAAAUGGACAUCAGGGCAGAGCAA,0.045
14,AGUUCGCGCCGGGAGCUCCAGCACAGGUAAAUGGACAGAAGGGCAGAGCAA,0.0303
15,AGUUACCACCGCGAGCUCCAGCACAGUGAAAUGGACAGAAGGGCAGAGCAA,1.57
16,AGUUACCACCGGGAGCUCCAGCACAGUGAAAUGGACAGAAGGGAUGAGCAA,4.02
17,AGUUGCUGCUGGGAGCUCCAGCACAGUGAAAUGGACAGAAACGCAGAGCAA,0.419
18,AGUUCUUCUCGGCAGCUCCAGCACAGUGAAAUGGACAGAAGGGCAGAGCAA,0.822
19,AGUUCGCGCCGGGAGCUCCACAACAGUGAAAUGGACAGAAGGGCAGAGCAA,3.02
20,AGCGGAAGAAGGGAGCUCCAGCACAGUGAAAUGGACAGAAGGGCAGAGCAA,0.667
21,AGUCUCUGCUGGGAGCUCCAGCACAGUGAAAUGGACAGAAGGGCAGAGCAA,0.105
22,AGUUGCGUCUGGGAGCUCCAGCACAGUGAAAUGGACAGAAGGGCAGAGCAA,1.91
23,AGUUCACCCAGGGAGCUCCAGCACAGUGAAAUGGACAGAAGGGCAGAGCAA,0.494
24,AGUUCUUCUCGGGGACUCCAGCACAGUGAAAUGGACAGAAGGGCAGAGCAA,1.17
25,AGCAGAAGAAGGGAGCUCCAGCACAGUGAAAUGGACAGAAGGGCAGAGCAA,0.528
26,AGUUCUUCUCGGGGGCUCCAGCACAGUGAAAUGGACAGAAGGGCAGAGCAA,1.2

row,Variant,exon inclusion enrichment index
1,AGUUACCACCGGGAGCUCCAGCACAGUUGAAUGGACAGAAGGGCAGAGCAA,2.07
2,AGUUACCACCGGGAGCUCCAGCACAGUGAAAUGGACAUGAGGGCAGAGCAA,1.15
3,AGUUAUAUAUGGGAGCUCCAGCGAAGUGAAAUGGACAGAAGGGCAGAGCAA,0.238
4,AGUUUCUUUUGGGAGCUCUAGCACAGUGAAAUGGACAGAAGGGCAGAGCAA,0.00467
5,AGUUAGGGAUGGGAGCUCCAGCACAGUGAAAUGGAAUGAAGGGCAGAGCAA,0.00282
6,AGUUGACGACGGGAGCUCCAGCACAGUGAACGGGACAGAAGGGCAGAGCAA,3.9
7,AGUUGCUGCUGGGAGCUCCAGCACAGUGAAAUGGACAGAAGGGCAGUGCAA,0.105
8,AGUUCGCGCCGGGAGCUCCAGCACGGUGAAAUGGACAGAAGGGCAGAGCAA,5.05
9,AAUUUCUUUUGGGAGCUCCAGCACAGUGAAAUGGACAGAAGGGCAGAGCAA,0.53
10,AGUUCGCGCCGGGAGCUCCAGCACAGUGAAAUGGACAGAAGUUCAGAGCAA,4.33
11,AGUUGAAGAAGGGAGCACCAGCACAGUGAAAUGGACAGAAGGGCAGAGCAA,0.63
12,AGUUCUUCUCGGGAGCUCCAGCACAGUGAAAACGACAGAAGGGCAGAGCAA,2.37
13,AGUUGAAGAAGGGAGCUCCAGCACAGUGAAAUGGACAGAAGGGCACAGCAA,0.722
14,AGUUGAAGAAGGGAGCUCCAGCACAGUGAAAUGGACAGAAGCACAGAGCAA,1.78
15,AGUUGCUCUCGGGAGCUCCAGCACAGUGAAAUGGACAGAAGGGCAGAGCAA,0.579
16,AGUUGAAGAAGGGAGCUCCAGCACAGAAAAAUGGACAGAAGGGCAGAGCAA,0.824
17,AGUUGGAGCUGGGAGCUCCAGCACAGUGAAAUGGACAGAAGGGCAGAGCAA,0.00764
18,AGUUCUUCUCGGGAGCUCCAGCACAGUGAAAUGGACAGAAGGGCACCGCAA,1.76
19,AGUUCUGUUCGGGAGCUCCAGCACAGUGAAAUGGACAGAAGGGCAGAGCAA,1.07
20,AGUUACCACCGGGAGCUCCAGCACAGUGAAUUGGACAGAAGGGCAGAGCAA,2.07
21,AGUUGCUGCUGGGAGCUCCAGCACAGUGAAAGUGACAGAAGGGCAGAGCAA,0.0308
22,AGUUCUUCUCGGGAGCUCCAGCACAGUGCGAUGGACAGAAGGGCAGAGCAA,3.25
23,AGUUUCUUUUGGGAGCUCCAGCACAGUGAAAUGGACAGAAGUACAGAGCAA,0.451
24,AGUUGACGACGGGAGCUCCAGCACAGUGAAAUGGACAAUAGGGCAGAGCAA,0.332
